Test results taken from patent US20220249679A1 (Mitsubishi Tanabe Pharma Corporation, priority 2018, published 2022).
Numbering of substitutions follows the chain as printed.

T1: human CD138 (Homo sapiens, UniProt P18827)
T1 sequence (P18827 23-310): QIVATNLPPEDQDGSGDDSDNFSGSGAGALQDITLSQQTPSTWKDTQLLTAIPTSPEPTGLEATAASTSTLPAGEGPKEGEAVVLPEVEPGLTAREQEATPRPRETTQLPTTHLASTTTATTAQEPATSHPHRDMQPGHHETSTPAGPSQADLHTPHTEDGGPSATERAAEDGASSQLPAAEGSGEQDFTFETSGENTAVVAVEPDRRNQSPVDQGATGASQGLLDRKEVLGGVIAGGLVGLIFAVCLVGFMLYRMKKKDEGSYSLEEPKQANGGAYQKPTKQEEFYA

T2: Human CD138 His (Homo sapiens, UniProt P18827)
T2 construct: His
T2 sequence (P18827 23-310): T1 sequence (P18827 23-310)

B1: 13P30A7 hIgG1: chimeric antibody: murine variable regions of F13P30A7 (SEQ ID NO:83, 35), constant regions of human IgG1, kappa (antibody, listed as Mus musculus, V domains shown)
VH: EVQLVESGGGLVQPKGSLKLSCAASGFTFNTYAMNWVRQAPGKGLEWIARIRSKSNNYATYYADSVKDRFTISRDDSQSLLYLQMNNLKTEDTAIFYCVTDYGYVYFDAWGAGTTVTVSS
VL: NIIMTQSPKSMAMSVGERVTLSCKASENVGNYVSWYQQKPEQSPKLLIYGASYRYTGVPDRFTGSGSGTDFTLTISSVQAEDLADYHCGQSSRYPLTFGAGTKLELKR
modifications: human IgG1 and kappa constant regions
B2: F13P30A7: murine anti-CD138 hybridoma antibody; VH SEQ ID NO:83, VL SEQ ID NO:35 (antibody, listed as Mus musculus, V domains shown)
VH: B1 VH
VL: B1 VL
B3: F13P18D8: murine anti-CD138 hybridoma antibody; VH SEQ ID NO:84, VL SEQ ID NO:36 (antibody, listed as Mus musculus, V domains shown)
VH: B1 VH with V5L, K15E, T28A, I48L, S79G, L80M, I95M, F96Y, G103Y, A109V
VL: B1 VL with I3V, A12S, N31T, P40S, E41D, Y53N, G68A, S76T, A80S
B4: F11AP11E5: murine anti-CD138 hybridoma antibody; VH SEQ ID NO:87, VL SEQ ID NO:39 (antibody, listed as Mus musculus, V domains shown)
VH: QVQLQQSGAELVKPGASVKLSCKASGYTFTNYYMYWVKQRPGQGLEWIGEINPGNGGTNFNEKFKNKATLTVDKSSSTAYMQLSSLTSEDSAVYYCTTRFAYWGQGTLVIVSA
VL: DVVMTQTPLSLSVTIGQPASISCKSGQSLLYSNGKTYLTWLQQRPGQAPKLLMYQVSKLDPGIPDRFSGSGSETDFTLKISRVEAEDLGVYYCLQNTYYPHTFGAGTKLELKR

Assays:
[1] = system: cyno CD138; assay: FACS binding to Expi293 cells transfected with cyno CD138; set-up: species or system cynomolgus monkey; conditions: 3-fold dilutions from 33.3 μg/mL
Chain of cyno CD138 (as listed by the source): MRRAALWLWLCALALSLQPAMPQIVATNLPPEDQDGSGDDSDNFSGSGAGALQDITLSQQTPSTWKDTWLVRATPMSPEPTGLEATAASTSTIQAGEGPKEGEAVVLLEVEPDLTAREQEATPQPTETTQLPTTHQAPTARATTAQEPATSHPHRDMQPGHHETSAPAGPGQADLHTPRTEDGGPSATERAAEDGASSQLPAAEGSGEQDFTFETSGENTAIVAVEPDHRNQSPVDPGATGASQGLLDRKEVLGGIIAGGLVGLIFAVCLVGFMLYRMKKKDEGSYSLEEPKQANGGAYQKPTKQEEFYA
Protocol: (§1) 12P16F6 hIgG1 or 13P30A7 hIgG1 were tested for cross-reactivity to cynomolgus monkey CD138. Antibodies that cross-react with CD138 from cynomolgus monkey (cyno) have an advantage that they can be tested for toxicity in this strain of non-human primate prior to conducting efficacy trials. Briefly, a vector directing the cell-surface expression of human CD138 or cyno CD138 was transfected in Expi293 cells. Binding of 12P16F6 hIgG1 and 13P30A7 hIgG1 to transfected Expi293 cells was tested at 3-fold dilutions starting at 33.3 μg/mL.

[2] = biological target: T1, human CD138; assay: FACS binding to Expi293 cells transfected with human CD138; conditions: 3-fold dilutions from 33.3 μg/mL
Protocol: as §1

[3] = biological target: T2, Human CD138 His; assay: SPR kinetic binding, human CD138; conditions: bivalent analyte fit
Protocol: Murine IgGs were purified from the hybridoma supernatants and the IgGs were subject to SPR (surface plasmon resonance) for kinetic binding measurements. Human or mouse CD138 His was immobilized on a GLM chip at […] on a BioRad Proteon. […] KDs were measured using bivalent analyte fit.

Molecule	binding to cynomolgus CD138 expressing cells [1]	binding to human CD138 expressing cells [2]	hCD138 ka [3]	hCD138 kd [3]
B1	specific binding	specific binding	–	–
B2	–	–	238000 M⁻¹ s⁻¹	0.00127 s⁻¹
B3	–	–	278000 M⁻¹ s⁻¹	0.000523 s⁻¹
B4	–	–	128000 M⁻¹ s⁻¹	0.0117 s⁻¹
